Reference: patent publication US5726038

Target: FXa/TF/FVIIa

Q: How did the secreted FXa/TF/FVIIa-dependent chromogenic TFPI- activity turn out when “TFPI1-161 -117Gln (non-glycosylated variant of human tissue factor pathway inhibitor, first 161 amino acids, Asn117 replaced by Gln)” was run?
A: Its secreted FXa/TF/FVIIa-dependent chromogenic TFPI- activity is 1 U/ml·OD.
